Tests used:
[1] = test system: FIX/cFXI1/XTEN (pCW0735), FIX-KLTRAET-XTEN_AE864
[2] = test system: FIX/cFXI2/XTEN (pCW0736), FIX-DFTRVVG-XTEN_AE864
[3] = test system: FIX/cFXI3/XTEN (pCW0737), FIX-/FXI/-XTEN_AE864
[4] = molecular target: T1, soluble tissue factor (sTF), P13726
T1 chain: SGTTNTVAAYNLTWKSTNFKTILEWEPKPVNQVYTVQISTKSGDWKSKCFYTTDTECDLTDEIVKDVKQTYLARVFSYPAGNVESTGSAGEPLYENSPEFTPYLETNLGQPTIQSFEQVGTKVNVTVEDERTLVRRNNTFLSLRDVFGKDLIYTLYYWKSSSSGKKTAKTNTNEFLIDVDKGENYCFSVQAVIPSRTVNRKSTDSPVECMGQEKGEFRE

Row | Molecule | Concentration by Activity (ng/ml), aPTT based factor assay [1] [ng/mL] | Fraction Active (activity / ELISA) [1] [%] | clotting activity (aPTT based factor assay), fold enhancement by the FXI cleavage site [1] | Concentration by Activity (ng/ml), aPTT based factor assay [2] [ng/mL] | Fraction Active (activity / ELISA) [2] [%] | clotting activity (aPTT based factor assay), fold enhancement by the FXI cleavage site [2] | Concentration by Activity (ng/ml), aPTT based factor assay [3] [ng/mL] | Fraction Active (activity / ELISA) [3] [%] | clotting activity (aPTT based factor assay), fold enhancement by the FXI cleavage site [3] | soluble tissue factor (sTF) induced clotting in FVII null plasma (Stago STA-Clot FVIIa activity assay kit) [4]
1 | FXI protease (FXIa) of the aPTT assay plasma | 7 | 30 | In all three cases the presence of a FXI cleavage site enhanced the clotting activity by greater than 30-fold | 9 | 34 | In all three cases the presence of a FXI cleavage site enhanced the clotting activity by greater than 30-fold | 11 | 40 | In all three cases the presence of a FXI cleavage site enhanced the clotting activity by greater than 30-fold | –
2 | FVIIa-AE288 (activated FVII-AE288, AC398) (protein) AVFVTQEEAHGVLHRRRRANAFLEELRPGSLERECKEEQCSFEEAREIFKDAERTKLFWISYSDGDQCASSPCQNGGSCKDQLQSYICFCLPAFEGRNCETHKDDQLICVNENGGCEQYCSDHTGTKRSCRCHEGYSLLADGVSCTPTVEYPCGKIPILEKRNASKPQGRIVGGKVCPKGECPWQVLLLVNGAQLCGGTLINTIWVVSAAHCFDKIKNWRNLIAVLGEHDLSEHDGDEQSRRVAQVIIPSTYVPGTTNHDIALLRLHQPVVLTDHVVPLCLPERTFSERTLAFVRFSLVSGWGQLLDRGATALELMVLNVPRLMTQDCLQQSRKVGDSPNITEYMFCAGYSDGSKDSCKGDSGGPHATHYRGTWYLTGIVSWGQGCATVGHFGVYTRVSQYIEWLQKLMRSEPRPGVLLRAPFPGSPGTSESATPESGPGSEPATSGSETPGTSESATPESGPGSEPATSGSETPGTSESATPESGPGTSTEPSEGSAPGSPAGSPTSTEEGTSESATPESGPGSEPATSGSETPGTSESATPESGPGSPAGSPTSTEEGSPAGSPTSTEEGTSTEPSEGSAPGTSESATPESGPGTSESATPESGPGTSESATPESGPGSEPATSGSETPGSEPATSGSETPGSPAGSPTSTEEGTSTEPSEGSAPGTSTEPSEGSAPGSEPATSGSETPGTSESATPESGPGTSTEPSEGSAPGSSS | – | – | – | – | – | – | – | – | – | an activity equivalent to 112 U/ml of FVIIa activity

Source: patent publication US20140328819
